Assay results published in patent US20210230272A1 (L AND L BIOPHARMA, published 2021).

B1: LB309 (bispecific antibody)
chain 1: not shown
chain 2: QVQLVQSGAEVKKPGSSVKVSCKASGYAFSNYLIEWVKQAPGQGLEWIGLINPGSGGTNYNEKFKGKATITADKSTSTAYMELSSLRSEDTAVYYCARVYYGNSFAYWGQGTLVTVSS
chain 3: DIVMTQSPDSLAVSLGERATISCKSSQSLLNSGNQKNYLTWYQQKPGQPPKLLIYWASTRESGVPDRFSGSGSGTDFTLTISSLQAEDVAVYYCQNDYFYPFTFGQGTKLEIK
chain 4: not shown
B2: LB313 (bispecific antibody)
chain 1: not shown
chain 2: EIVLTQSPATLSLSPGERATLSCRASKGVSTSGYSYLHWYQQKPGQAPRLLIYLASYLESGVPARFSGSGSGTDFTLTISSLEPEDFAVYYCQHSRDLPLTFGGGTKVEIKRTVAAPSVFIFPPSDEQLKSGTASVVCLLNNFYPREAKVQWKVDNALQSGNSQESVTEQDSKDSTYSLSSTLTLSKADYEKHKVYACEVTHQGLSSPVTKSFNRGEC
chain 3: B1 chain 2
chain 4: B1 chain 3
B3: LB314 (bispecific antibody)
chain 1: B1 chain 3
chain 2: B1 chain 2
chain 3: not shown
chain 4: B1 chain 2
chain 5: B1 chain 3
chain 6: not shown
B4: LB308 (bispecific antibody)
chain 1: not shown
chain 2: B1 chain 2
chain 3: B1 chain 3
chain 4: B2 chain 2
B5: LB312 (bispecific antibody)
chain 1: not shown
chain 2: B1 chain 3
chain 3: B1 chain 2
chain 4: B2 chain 2

Target: T1, human PD-1 (human, UniProt Q15116 25-170)
T1 construct: extracellular domain; also called PD-1 antigen
Assay: ELISA, PD-1 coated

T1 sequence (Q15116 25-170): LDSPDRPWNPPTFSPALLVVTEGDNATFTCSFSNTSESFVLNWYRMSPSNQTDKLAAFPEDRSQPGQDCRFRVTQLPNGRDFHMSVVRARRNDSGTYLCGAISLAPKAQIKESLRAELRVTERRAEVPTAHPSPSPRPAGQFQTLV

| EC50 | Binder |
| --- | --- |
| 0.16 nM | B1 |
| 0.048 nM | B2 |
| 0.083 nM | B3 |
| 0.25 nM | B4 |
| 0.042 nM | B5 |

Target: T1, human PD-1
Assay: blocking ELISA: PD-1 coated, biotin-labelled PD-L1

| IC50 | Binder |
| --- | --- |
| 0.8 nM | B1 |
| 1.93 nM | B4 |

Target: T1, human PD-1
Assay: ELISA; EC50 ratio to the control monoclonal antibody

| EC50 fold change | Binder |
| --- | --- |
| 1.33 | B1 |
| 3.4 | B2 |
| 5.2 | B3 |
| 0.93 | B4 |
| 3 | B5 |

Target: T1, human PD-1
Assay: blocking ELISA; IC50 ratio to the control monoclonal antibody

| IC50 fold change | Binder |
| --- | --- |
| 2.42 | B1 |
| 1.8 | B4 |
